In paper PMC4805542:

System: ZF6-KRAB (synthetic construct)
Assay: EMSA
Conditions: 2.5 uM protein, DNA titrated 130-200 nM; apparent Kd, Scatchard; 6.25 mM MgCl2; 25 mM Hepes pH 7.9, 50 mM KCl, 6.25 mM MgCl2, 1% Nonidet P-40, 5% glycerol; 15 min on ice; 5% PAGE in 0.5x TBE at 4 C

**Q.** Which Kd does the source give for hRHO 65 bp duplex oligonucleotide here?
**A.** Its Kd is 108 nM.
